In this experiment the target is ex vivo seeds extracted from the hearts of eight ATTR patients. Nature of the experiment: cell-based or functional assay.

Where no end group is shown, it is not given here. [ ]: non-standard residue; d: D form. NMeE = CN[C@@H](CCC(=O)O)C(=O)O

The molecule RRRRHVAHPFV[NMeE]FTE [TabF2] yielded a peptide concentration giving full inhibition of amyloid seeding (tested as the cocktail TabFH2) of 360 µM.

The record behind these values is patent US20200010507A1.
